Measured values reported in US20030114379A1 (Human Genome Sciences, published 2003).

How the values were obtained:
[1] = molecular target: cell surface receptor for MIP-1α (on human monocytes) (human); test: cell-based or functional assay
[2] = molecular target: the molecule itself; test: sedimentation equilibrium analytical ultracentrifugation for self-association, at several pH values and ionic strengths (Table 10, State 'M')
Method: Sedimentation Equilibrium. Analytical ultracentrifugation experiments were performed on a Beckman model XL-A ultracentrifuge at 20° C. at rotor speeds 23,000, 28,000 and 40,000 rpm. Experiments were carried out at two different starting concentrations in different buffers and ionic strength to study their effect on dimerization (Table 10). Absorbance was measured at 280 nm and the data was collected as an average of five successive radial scans using a 0.003 cm step size. The data was fitted to the following equation: […]
Sedimentation equilibrium. Chemokine ability to associate is dependent on solution conditions such as pH and ionic strength. The association properties of the MPIF-1 and the full length MPIF-1 were studied using ultracentrifugation methods at different pH and ionic strengths. […] The monomeric state of MPIF-1 is consistent with the NMR structure and also from the calculation of the correlation time from ¹⁵N dynamics.

B1: MPIF-1 Mutant-1 (the 'mature' MPIF-1 for E. coli expression, wild type with an N-terminal methionine) (ligand)
chain: MRVTKDAETEFMMSKLPLENPVLLDRFHATSADCCISYTPRSIPCSLLESYFETNSECSKPGVIFLTKKGRRFCANPSDKQVQVCMRMLKLDTRIKTRKN
With B1 the “intracellular calcium mobilization in human monocytes, activity relative to wild type MPIF-1” value [1] was ~2 fold.

B2: MPIF-1Δ23 (truncated human MPIF-1 lacking the 23 N-terminal amino acids of the mature protein, with an N-terminal Met; 77 amino acids, 8.85 kDa) (ligand)
chain: MDRFHATSADCCISYTPRSIPCSLLESYFETNSECSKPGVIFLTKKGRRFCANPSDKQVQVCMRMLKLDTRIKTRKN
notes: Delta 23
B2: no binding [2].
